Test results: patent publication US20230295338A1 (published 2023)

What was measured:
[1] = biological target: T1, human CEACAM1-Fc fusion protein (UniProt P13688 35-428); test: BLI
T1 chain: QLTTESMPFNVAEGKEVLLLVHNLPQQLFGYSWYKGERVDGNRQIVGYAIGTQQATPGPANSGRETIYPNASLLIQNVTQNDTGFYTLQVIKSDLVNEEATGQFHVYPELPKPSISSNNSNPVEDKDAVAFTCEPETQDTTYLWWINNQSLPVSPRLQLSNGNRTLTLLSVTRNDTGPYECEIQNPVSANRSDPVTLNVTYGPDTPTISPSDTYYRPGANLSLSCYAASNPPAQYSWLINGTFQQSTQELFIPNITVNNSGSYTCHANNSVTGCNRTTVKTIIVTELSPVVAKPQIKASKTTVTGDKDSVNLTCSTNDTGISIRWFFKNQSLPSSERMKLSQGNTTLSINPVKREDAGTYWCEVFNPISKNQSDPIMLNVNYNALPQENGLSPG

[2] = biological target: T1, human CEACAM1-Fc fusion protein; test: ELISA
CC1-N-Fc = test: ELISA
recHopQ = recHopQ (Helicobacter pylori); test: BLI

B1: CC1/3/5-Sab (antibody, V domains shown)
VH: EVQLQQSGPELVKPGTSVKMSCKASGYTFTTYVMHWVQQKPGQGLDWIGFFNPYNDGTKYNEKFKGKATLTSDKSSSTAYMELSSLTSEDSAVYYCARWAYDGSYAYWGQGTTLTVSS
VL: DIQMTQSSSYLSVFLGGRVTITCKASDHINNWLAWYQQKPGNAPRLLISGATSLETGVPSRFSGSGSGKDYTLSIISLQTEDVATYYCQQYWRTPFTFGSGTKLEIK
Q: B1 was tested. Which Kd [1] did it give?
A: Its Kd is 0.054 µM.

Q: What about the IC50 [2] of the same binder?
A: Its IC50 is 0.000146 µM.

B2: mAb CC1/3/5-Sab (antibody, V domains shown)
VH: EVQLQQSGPELVKPGTSVKMSCKASGYTFTTYVMHWVQQKPGQGLDWIGFFNPYNDGTKYNEKFKGKATLTSDKSSSTAYMELSSLTSEDSAVYYCARWAYDGSYAYWGQGTTLTVSS
VL: DIQMTQSSSYLSVFLGGRVTITCKASDHINNWLAWYQQKPGNAPRLLISGATSLETGVPSRFSGSGSGKDYTLSIISLQTEDVATYYCQQYWRTPFTFGSGTKLEIK
Q: How did the IC50 (CC1-N-Fc) turn out when B2 was run?
A: The IC50 was 0.000107 µM.

B3: CEACAM1-Fc (Fc fusion)
chain: QLTTESMPFNVAEGKEVLLLVHNLPQQLFGYSWYKGERVDGNRQIVGYAIGTQQATPGPANSGRETIYPNASLLIQNVTQNDTGFYTLQVIKSDLVNEEATGQFHVYPELPKPSISSNNSNPVEDKDAVAFTCEPETQDTTYLWWINNQSLPVSPRLQLSNGNRTLTLLSVTRNDTGPYECEIQNPVSANRSDPVTLNVTYGPDTPTISPSDTYYRPGANLSLSCYAASNPPAQYSWLINGTFQQSTQELFIPNITVNNSGSYTCHANNSVTGCNRTTVKTIIVTELSPVVAKPQIKASKTTVTGDKDSVNLTCSTNDTGISIRWFFKNQSLPSSERMKLSQGNTTLSINPVKREDAGTYWCEVFNPISKNQSDPIMLNVNYNALPQENGLSPG
Q: With B3 as the binder, how does the Kd (recHopQ) read?
A: Its Kd is 0.183 µM.
